From publication PMC9043842 (RSC Advances, 2021)
Changes are numbered by the printed parent chain. Names and notes keep the numbering of the source. Where two headings read alike, the source gives them in different places.

B1: G80A/H81A (K3A2H) horse myoglobin (natural protein)
chain: GLSDGEWQQVLNVWGKVEADIAGHGQEVLIRLFTGHPETLEKFDKFKHLKTEAEMKASEDLKKHGTVVLTALGGILKKKAAHEAELKPLAQSHATKHKIPIKYLEFISDAIIHVLHSKHPGDFGADAQGAMTKALELFRNDIAAKYKELGFQG
B2: G80A/H81A/L137E (K3A2H-L137E) horse myoglobin (natural protein)
chain: B1 chain with L137E
B3: G80A/H81A/L137D (K3A2H-L137D) horse myoglobin (natural protein)
chain: B1 chain with L137D

Legend:
Test in all cases: SEC
SEC [1] = target: the molecule itself
SEC [2] = target: the molecule itself; remark: listed apart in the source
SEC [3] = target: the molecule itself; remark: listed apart in the source

Protein	Ka (SEC [1])	dH (SEC [1])	dimer-to-monomer ratio after heating (SEC [2])	Ka (SEC [3])	dH (SEC [3])
B1	920000 M⁻¹	-30.8 ± 1.1 kcal/mol	92%	–	–
B2	–	–	97%	9.4e+06 M⁻¹	-63.2 ± 5.1 kcal/mol
B3	–	–	98%	2.3e+07 M⁻¹	-100 ± 4 kcal/mol
